From the nanobody polyreactivity screen of Harvey et al. (2022)

Assay: yeast display, Sf9 membrane polyspecificity reagent, FACS + sequencing; frameworks hold sequencing errors
In short: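 Nanobodies from a synthetic yeast display library (Saccharomyces cerevisiae BJ5465), induced 36–48 hours with galactose, were stained 1 hour at 4 °C with 10% biotinylated, detergent-solubilized Sf9 membrane reagent, enriched on streptavidin microbeads, then FACS-sorted. Anti-HA (expression) and streptavidin (reagent binding) fluorescence set low and high (top ~1%) gates. Polyreactivity labels come from the gate of origin. Genes were colony-PCR amplified, MiSeq 2 × 250 sequenced and filtered by CDR length.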

QVQLVESGGGLVQAGGSLRLSCAASGRIFSINAMGWYRQAPGKEREFVATISDRGSTTSYADSVKGRFTISGDNAKNTVDLQMNSLKPDDTAVYYCAARSYYRYDYWGQGTQVTVSS
polyreactivity (PSR sort gate): high polyreactivity

QVQLVESGGGLVQAGGSLRLSCAASGTFYKYAMGWYRQAPGKERELVAAISWRGGRTYADSVKGRFTISRDNAKNTVYLQMNSLKPEDTAVYYCNKRFYPEHYYWGQGTQVTVSS
polyreactivity (PSR sort gate): high polyreactivity

QVQLVESGGGLVQAGGSLRLSCAASGFIFVSNAMGWYRQAPGKERELVATITNGDRTYYADSVKGRFTISRDNAKNTVYLQMNSLKPEDTGVYYCNADDQVGSIWKWYGKYEYRGQGTQVTVSS
polyreactivity (PSR sort gate): low polyreactivity

QVQLVESGGGLVQAGGSLRLSCAASGRTFTFNVMGWYRQAPGKERELVAVITGGDDTYYADSVKGRFTISRDNAKNTVYFQMNSLKPVDTAVYYCNAAAGATTLVRPYVEFDYWGQGTQVNVSS
polyreactivity (PSR sort gate): low polyreactivity

QVPLVESGGGLVQAGGSLRLSCAASGSIFGQYAMGWYRQAPGKERELVAAIRDGTGSTYYAVSVKGRFTISRDNAKNTVYVQMNSLKPEDRAVYYCAADYIWTSIVHYEYWGQGTEVTVSS
polyreactivity (PSR sort gate): high polyreactivity

QVQLVESGGGLVQAGGSLRLSCAASGSTFFTNTMGWYRQAPGKERELVAAISKSGGSTYYADSVKGRFTISRDNAKNTVYLQMNSLKPEDTAVYYCAASDRYGGRDYWGQGTQVTVSS
polyreactivity (PSR sort gate): high polyreactivity

QVQLVESGGGLVQAGGRLRLSCAASGRTFVPYAMGWYRQPPGKERELVAAISYSGDSTYYADSEKGRFTISRDNAKNTVYLQMNSLKPEDTAVYYCAARGGNPFYYWGQGTQVTVSS
polyreactivity (PSR sort gate): low polyreactivity

QVQLVESGGGLVQAGGSLRLSCAASGSTFYFNAMGWYRQAPGKEREFVAAITYSGGSTNYADSVKGRFTISRDNAKNTVYLQMNSLKPEDTAVYYCAARRYSYYYWYDYWGQGTQVTVSS
polyreactivity (PSR sort gate): high polyreactivity

QVQLVESGGGLVQAGGSLRLISAASGITFDPYAMGWYRQAPGKEREFVAAITRRSASTYYADSVKGRFTISRDNAKNTVYLQMNSLKPEDTALYYCAARGKVPYNYWGQGTQVTVSS
polyreactivity (PSR sort gate): high polyreactivity

IIQAGGSLRLSCAASVRTFSGYAMGWYRQAPGKERELIADITSGGSTYYADSVKGRFTISRDNAKNTVYLQMNSLKPEDTAVFYCCRDDRLAGDYWGQGTQVNVSS
polyreactivity (PSR sort gate): low polyreactivity

QVQLVESGGGLVQAGGSLRLSCAASGFTFRYYAMGWYRQAPGKEREFVAAITRSGGRTYYADSVKGRFTISRDNAKNTVYLQMNSLKPEDTAVYYCAARYVSRFDWGQGTQVTVSS
polyreactivity (PSR sort gate): high polyreactivity

QVQLVESGGGLVQAGGSLRLSCSASGFTFEEYAMGWYRQAPGKERELVAAIDYTVGSTYYADSVKGRFTISRDNAKNTVYLQINSLKPEDTAVYYCNVDLSYSFNSAYGYWGQGTQVSVSS
polyreactivity (PSR sort gate): low polyreactivity

QVQIEESGGGLVQAGGSHRLSCAASGRTFGGNAMGRYRQAPRKERELVAAISISGGSNTYYADSVKGRFTISRDTGKNTVYLQMNSLKPEDTAVYFCAARSTVYISSDYWGQGTQVTVSS
polyreactivity (PSR sort gate): low polyreactivity

QVQLVESGGGLVQAAGSLRLSCAASGSPFSGYAMGWYRQPPGKQRELVAAISWRGVRTSYADSVKGRFTISRDNAKNRVYLQMNSLKPEDSAVYYCDAVRYITKEFYWGQGTQVTVSS
polyreactivity (PSR sort gate): high polyreactivity

QVQLVESGGGLVQAGGSLRLSCAASGRIFWRYAMGWYRQAPGKERELVAAITGRTGSTNYADSVKGRFTISRDNAKNTVYLQMNSLKPEDTAVYYCAAAHHRWTGLYPSGYEFDYWGQGTQVTVSS
polyreactivity (PSR sort gate): low polyreactivity

QVQLVESGGGLVQAGGSLRLSCASSGSTFAIYAMGWYRQAPGKESELVAAITRSGGNAYYADSVKGRFTISRDNAKNTVYLQMNSLKPEDTAVYYCNAETYYWSAYAQYDYWGQGTQVTVSS
polyreactivity (PSR sort gate): high polyreactivity

QVQLVESRGGLVQAGGSLRLSCAASGRIFNAYAMGWYRQAPGKERELVAAITVSGTRTYYADSVKGRFTISRDNAKNTVYLQMNSLKPEDTAVYYCAAEVVNYWYSYDYWGQGTQVTVSS
polyreactivity (PSR sort gate): high polyreactivity

QVQLVESVGGLVQAGGTLRLSCAASGRIFCIYAMGWYRPAPGKVRSLVATITGSGGSTYYADSVKGRFTISRDNAKNTVYLQLHSLKPEDTAVYYCAARYPVSGGYDYWGQGNQVTVSS
polyreactivity (PSR sort gate): low polyreactivity

QVQLVESGGGLVQAGGILRLSCAASGRIFKDNAMGWYRLAPGKERELVATIDSGGDTNYADSVKGRFTISRDNAKNTVYLQMNSLKPEDTAVYYSNTEGFLSAVYAFGYWGQGTQVTVSS
polyreactivity (PSR sort gate): low polyreactivity

QVQLVESGGGLVQAGGSLRLSCAASGSTFVRYAMGWYRQAPGKERELVAAIRGGGGTYYADSVKGRFTISRDNAKNTVYLQMNSLKPEDTAVYYCAADTYYYYWFAGYTEYDYWGQGTQVTVSS
polyreactivity (PSR sort gate): low polyreactivity

QVQLVESGGGLVQAGGSLRLSCAASGFIFHRYAMGWYRQAPGKERELVAAISSSGGSTYYADSVKGRFTISRDNAKNTVYLQMNSLKPEDTAVYYCAAEEEEFIYDYWGQGTQVTVSS
polyreactivity (PSR sort gate): high polyreactivity

QVQLVESGGCLVQAGGSLRLNCAASGGTFVNNDMGWYRQAPGKERELVAAIRSAGTTYYADSVKGRFTISRDNAKNSVYLQMNSLKPVDTAVYYCNADTTGYWSYGFQYYGEDYWGQGTQVTVSS
polyreactivity (PSR sort gate): low polyreactivity

QVQLVESGGGLVQAGGRLRISCAASGRTFQVYTIGWYRQAPGKERELVAAITWNGGRSRYADSVKGRFTISRDNAKNTVYLQMNRLKPEDTAVYYCNAGSTELGWTWELDYWGQGTQVTVSS
polyreactivity (PSR sort gate): high polyreactivity

QVQLVESGGGLVQAGGSLRLSCAASGRTFRHYAMAWYRQAPGKERELVASIRWNGASTNYADSVKGRFTISRDNAKNTVYLQMNSLKPEDTAVYYCNARYLFYSGYVYWGQGTQVTVSS
polyreactivity (PSR sort gate): high polyreactivity

QVQLVESGGGLVQAGGSLRLRCAASGRTFYKNTMGWYRQAPGKERELVATISQRGGATYYADSVKGRFTISRDNAKNTVYLQMTSLKPEDTAVYYCNARKYTQSIHYDYWGQGTQVTVSS
polyreactivity (PSR sort gate): high polyreactivity

QVQLVESGGGLVQAGGSLRLSCAASGFTFSNYAMGWYRQAPGKERELVAAISKRGGSTYYADSVKGRFTISRDNAKNTVYLQRNSLKPEDTAVYYCAAYGGYIRRSVPVWGYYYWGQGTQVTVSS
polyreactivity (PSR sort gate): high polyreactivity

QVQLVESGGGLVQAGGSLRLSCAASGRIFAFYAMGWYRQAPGKERQLVAVISKSGGTTYYADSVKGRFTISRDNAKNTVYLQMNSLKPEDTAVYYCNKRVFYRHGYSYNYWGQGTQVTVSS
polyreactivity (PSR sort gate): high polyreactivity

QVQLVESGGGLVQAGGSLRLSCAASGSTFGAYAMGWYRQAPGKERELVAAISSSDGSTYYADSVKGRFTISRDTAKNTVYLQMNSLKPEDTAVYYCAAEYYSAVYIDEYWYDYWGQGTQVTVSS
polyreactivity (PSR sort gate): high polyreactivity

QVQLVESGGGLVQARGSLRLSCAASGRTFFNNAMGWYRQAPGKERELVAGISVTTGSTYYADSVKGRFTISRDNAKNTVYLQMNSLKPEDTAVYYCAARRKQYYAAYRYYYWGQGTQVTVSS
polyreactivity (PSR sort gate): high polyreactivity

QVQLEESGAGLVQAGGSLRLSCAPSGIIYDGNAMGWYRKAPGKERELLASITSDSSTNYADSVKGRFTISRDNAKYTVYLHMNSLKPQDTAVYYCAADHWIAPRRDYWGQGTQVTVSS
polyreactivity (PSR sort gate): low polyreactivity

QVQLVESCGGLVQAGGSLRLSCAASGITFGSYAMGWYRQAPGKERELVAAITTGTSTNYADSVKGRFTISRDNAKNTVYLQMNSLKPEDTAVYYCNAEKYNFIYAYEYWGQGTQVTVSS
polyreactivity (PSR sort gate): low polyreactivity

QVQLVESGGGLVQAGGSLRLSCAASGSTFQFYAMGWYRQAPGKEREFVAGIRSSGGTYYADSVKGRFTISRDNAKNTVYLQMNSLKPEDTAVYYCAAVSSYSPYRRTYYYWGQGTQVTVSS
polyreactivity (PSR sort gate): high polyreactivity

QVQLVESGGGLVQAGGSLRLSCAASGIIFVYYVMGWYRQAPGKERELVASIDGSGGSTNYADSVKGRFTISRDNAKYTVYLQMNSLKPEDTAVYYCNADNILYWSTLDYWGQGTQVTVSS
polyreactivity (PSR sort gate): low polyreactivity

QVQLVESGGGLVQAGGSLRLSCAASGFTFKSNAMGWYRPSPGKERELVAAITWNGGSTYADSEKGRFTISRDNAKNTVYLQMNSLKPEDTAVYYCAARPYPHSAYEGDYWGRGTQVTVSS
polyreactivity (PSR sort gate): low polyreactivity

QVQLVESGGGLVQAGGSLRLSCAASGRTFDVYAMGWYRQAPGKERELVATISYRSARTYYADSVKGRFTISRDNAKNTVYLQMNSLKPEDTAVYYCAAYFETWHGFGYWGQGTQVTVSS
polyreactivity (PSR sort gate): high polyreactivity

QVQLVESGGGLVQAGGSLRLSCAASGFIFRYYAMGWYRQAPGKEREMVAAISRSGGSTYYADSVKGRFTISRDNANNTVYLQMKSLKPEDTAVYYCAALQSRSWYQFNYWGQGTQVTVSS
polyreactivity (PSR sort gate): high polyreactivity

QVQLVESGGGLVQAGGSLRLSCAASGRIFWTYAMGWYRQAPGKERELVAAITSGGSTYYADSVKGRVTISRDNAKNTVYLLMNSLKPEDTAVYYCAATSYYYNFMEHDYWGQGTQVTVSS
polyreactivity (PSR sort gate): high polyreactivity

QVQLVESGGGLVQAGGSLRLSCAASGLTISYYAMGWYRQAPGKERELVAAISTDSSTNYADSVKGRFTISRDNAKNTVYLQMISLKPEDTAVYYCAAVVVYGPIHGYWGQGTQVTVSS
polyreactivity (PSR sort gate): low polyreactivity

QVQLVESGGGLVQAGGSLRLSCAASGSISYTYAMGWYRQATGKERELVASISYSEGITYYADSVKGRFTISRDNAKNTVYLQMNSLKPEDTAVYYCAVEGVYPYYDQSEYDYWGQGTQVTVSS
polyreactivity (PSR sort gate): high polyreactivity

QVQLVETGGGLVQAGGSLRLSCAASGFNLPIYAMRCYRQPPGKEREFVAAITWTGGSTYYADSVKGRFTISRDNAKNTVYLQMNSLKPEDTAVYYCNAEGPSYYYIIYDYWGQGTQVTVSS
polyreactivity (PSR sort gate): high polyreactivity

QVQLVESGGGLVQAGGSLRLSCAASGRTFSDYAMGWYRQAPGKERELVAAITSSSGTTYYADSVKGRFTISRDNAKNTVYFQMNSLKPEDTAVYYCAAGHPYSLSERYNYWGQGTQVTVSS
polyreactivity (PSR sort gate): low polyreactivity

QVQLVESGGGLVQAGGSLRLSCAASGFIFPYNTMGWYRQATAKERELVAAIRYSAGRTYYADSVKGRFTISRDNAKNTVYLQMNSLKPEDTEVYYCNGVSSGDMDYWGQGTQVTVSS
polyreactivity (PSR sort gate): high polyreactivity

QDQLVESGGGLVQAGGSLRLSCAGSGSTFKRYAMGWYRQAPGKDRELVAAISRRGGSTYYADSVKGRFTISRDNAKNTVYLQMNSLKPEDTAVYYCAARGTGNIYDYWGQGTQVTVSS
polyreactivity (PSR sort gate): high polyreactivity
